The values below come from the supplement of paper PMC10567573.

B1: TRAF3IP2 (parent)
chain: YGHDYPRAAYQQVIQPALPGQPLP
B2: INTS3 (parent)
chain: AQLQALRQKEVDFCISLLRERFME
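Further: lentivirally expressed fusions sorted by FACS into six bins by GFP to DsRed ratio, PSI derived from sequencing read proportions per bin multiplied by bin number.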

In the first data set the parent is B1. Nature of the data set: protein stability index of a GFP-peptide fusion (GPS, HEK-293T) (PSI 1-6); higher = more stable. Conditions: c terminus: a fixed tail appended.
On to EGHDYPRAAYQQVIQPALPGQPLP [Y1E], for which the protein stability index was 4.63.

For the variant IGHDYPRAAYQQVIQPALPGQPLP [Y1I], the protein stability index was determined as 3.52.

Turning to NGHDYPRAAYQQVIQPALPGQPLP [Y1N], the protein stability index was 4.21.

Turning to QGHDYPRAAYQQVIQPALPGQPLP [Y1Q], the protein stability index is 3.73.

With FGHDYPRAAYQQVIQPALPGQPLP [Y1F], the protein stability index is 2.12.

TGHDYPRAAYQQVIQPALPGQPLP [Y1T]: the protein stability index came to 3.54.

As for RGHDYPRAAYQQVIQPALPGQPLP [Y1R], the protein stability index was found to be 3.71.

For the variant PGHDYPRAAYQQVIQPALPGQPLP [Y1P], the protein stability index amounted to 4.1.

Turning to DGHDYPRAAYQQVIQPALPGQPLP [Y1D], the protein stability index was 4.19.

AGHDYPRAAYQQVIQPALPGQPLP [Y1A]: the protein stability index stood at 3.77.

Consider HGHDYPRAAYQQVIQPALPGQPLP [Y1H], for which the protein stability index amounted to 4.03.

The variants in the next data set derive from B2. The data set is described as above. Conditions: c terminus: a fixed tail appended.
For AQLQALRQKEVDFCISLLREEFME [R21E], the protein stability index was determined as 2.1.

AQLQALRQKEVDFCISLLRECFME [R21C]: the protein stability index stood at 2.58.

As for AQLQALRQKEVDFCISLLRETFME [R21T], the protein stability index came to 3.99.

Consider AQLQALRQKEVDFCISLLRELFME [R21L], for which the protein stability index came out at 2.34.

AQLQALRQKEVDFCISLLREDFME [R21D]: the protein stability index turned out to be 1.14.

Regarding AQLQALRQKEVDFCISLLREHFME [R21H], the protein stability index came to 2.91.

For the variant AQLQALRQKEVDFCISLLREMFME [R21M], the protein stability index was found to be 2.09.

For the variant AQLQALRQKEVDFCISLLREKFME [R21K], the protein stability index is 2.5.

Take AQLQALRQKEVDFCISLLREAFME [R21A]: the protein stability index stood at 2.41.

Turning to AQLQALRQKEVDFCISLLREWFME [R21W], the protein stability index was found to be 2.68.

For the variant AQLQALRQKEVDFCISLLREGFME [R21G], the protein stability index was 2.99.

In the case of AQLQALRQKEVDFCISLLREFFME [R21F], the protein stability index turned out to be 1.36.

Take AQLQALRQKEVDFCISLLRENFME [R21N]: the protein stability index worked out at 2.7.

Regarding AQLQALRQKEVDFCISLLRERNME [F22N], the protein stability index worked out at 1.69.

With AQLQALRQKEVDFCISLLRERDME [F22D], the protein stability index turned out to be 2.24.

With AQLQALRQKEVDFCISLLRERSME [F22S], the protein stability index turned out to be 1.31.

On to AQLQALRQKEVDFCISLLRERRME [F22R], for which the protein stability index is 2.1.

Consider AQLQALRQKEVDFCISLLRERWME [F22W], for which the protein stability index is 3.21.

For AQLQALRQKEVDFCISLLRERKME [F22K], the protein stability index amounted to 1.92.

With AQLQALRQKEVDFCISLLRERYME [F22Y], the protein stability index came to 2.21.

On to AQLQALRQKEVDFCISLLRERMME [F22M], for which the protein stability index is 3.62.

Take AQLQALRQKEVDFCISLLRERAME [F22A]: the protein stability index turned out to be 1.45.

Take AQLQALRQKEVDFCISLLRERCME [F22C]: the protein stability index turned out to be 1.19.

Regarding AQLQALRQKEVDFCISLLREREME [F22E], the protein stability index was 2.16.

As for AQLQALRQKEVDFCISLLRERQME [F22Q], the protein stability index turned out to be 1.98.

As to AQLQALRQKEVDFCISLLRERHME [F22H], the protein stability index turned out to be 1.18.

On to AQLQALRQKEVDFCISLLRERGME [F22G], for which the protein stability index stood at 1.17.

As to AQLQALRQKEVDFCISLLRERTME [F22T], the protein stability index worked out at 1.97.

On to AQLQALRQKEVDFCISLLRERPME [F22P], for which the protein stability index was 1.67.

On to AQLQALRQKEVDFCISLLRPRFME [E20P], for which the protein stability index turned out to be 2.08.

Consider AQLQALRQKEVDFCISLLRDRFME [E20D], for which the protein stability index stood at 2.65.

For the variant AQLQALRQKEVDFCISLLRMRFME [E20M], the protein stability index was 2.92.

In the case of AQLQALRQKEVDFCISLLRIRFME [E20I], the protein stability index came out at 3.04.

As to AQLQALRQKEVDFCISLLRSRFME [E20S], the protein stability index worked out at 5.14.

As to AQLQALRQKEVDFCISLLRLRFME [E20L], the protein stability index worked out at 2.34.

Take AQLQALRQKEVDFCISLLRGRFME [E20G]: the protein stability index is 3.34.

Turning to AQLQALRQKEVDFCISLLRKRFME [E20K], the protein stability index was 2.09.

On to AQLQALRQKEVDFCISLLRCRFME [E20C], for which the protein stability index is 2.38.

As to AQLQALRQKEVDFCISLLRRRFME [E20R], the protein stability index came to 2.49.

For the variant AQLQALRQKEVDFCISLLRERFMR [E24R], the protein stability index was 3.34.

Take AQLQALRQKEVDFCISLLRERFMQ [E24Q]: the protein stability index was determined as 1.4.

For the variant AQLQALRQKEVDFCISLLRERFMA [E24A], the protein stability index came to 3.89.

In the case of AQLQALRQKEVDFCISLLRERFMT [E24T], the protein stability index was 1.77.

On to AQLQALRQKEVDFCISLLRERFMP [E24P], for which the protein stability index came to 1.31.

For AQLQALRQKEVDFCISLLRERFMN [E24N], the protein stability index turned out to be 2.72.

As for AQLQALRQKEVDFCISLLRERFMI [E24I], the protein stability index is 2.7.

As for AQLQALRQKEVDFCISLLRERFMV [E24V], the protein stability index stood at 2.95.

For AQLQALRQKEVDFCISLLRERFMG [E24G], the protein stability index came to 1.92.

Regarding AQLQALRQKEVDFCISLLRERFMY [E24Y], the protein stability index is 2.66.

With AQLQALRQKEVDFCISLLRERFMM [E24M], the protein stability index was 4.47.

Turning to AQLQALRQKEVDFCISLLRERFHE [M23H], the protein stability index came to 1.96.

As to AQLQALRQKEVDFCISLLRERFNE [M23N], the protein stability index worked out at 2.55.

Consider AQLQALRQKEVDFCISLLRERFTE [M23T], for which the protein stability index came to 1.85.

As for AQLQALRQKEVDFCISLLRERFQE [M23Q], the protein stability index was 1.03.

In the case of AQLQALRQKEVDFCISLLRERFDE [M23D], the protein stability index was 1.95.

On to AQLQALRQKEVDFCISLLRERFAE [M23A], for which the protein stability index was determined as 2.78.

As for AQLQALRQKEVDFCISLLRERFLE [M23L], the protein stability index was 2.29.

Regarding AQLQALRQKEVDFCISLLRERFEE [M23E], the protein stability index was 1.46.

For the variant AQLQALRQKEVDFCISLLRERFVE [M23V], the protein stability index worked out at 5.11.

Regarding AQLQALRQKEVDFCISLLRERFSE [M23S], the protein stability index came to 1.42.

For the variant AQLQALRQKEVDFCISLLRERFRE [M23R], the protein stability index was 2.91.

For AQLQALRQKEVDFCISLLRERFKE [M23K], the protein stability index stood at 2.84.

For the variant AQLQALRQKEVDFCISLLRERFGE [M23G], the protein stability index was 1.9.

Turning to AQLQALRQKEVDFCISLLRERFIE [M23I], the protein stability index was 2.46.

Take AQLQALRQKEVDFCISLLRERFPE [M23P]: the protein stability index amounted to 1.79.

AQLQALRQKEVDFCISLQRERFME [L18Q]: the protein stability index came to 3.04.

Consider AQLQALRQKEVDFCISLSRERFME [L18S], for which the protein stability index was found to be 1.87.

In the case of AQLQALRQKEVDFCISLRRERFME [L18R], the protein stability index is 2.2.

Turning to AQLQALRQKEVDFCISLTRERFME [L18T], the protein stability index amounted to 2.24.

On to AQLQALRQKEVDFCISLYRERFME [L18Y], for which the protein stability index is 3.92.

AQLQALRQKEVDFCISLVRERFME [L18V]: the protein stability index amounted to 3.22.

For the variant AQLQALRQKEVDFCISLLEERFME [R19E], the protein stability index worked out at 1.

With AQLQALRQKEVDFCISLLDERFME [R19D], the protein stability index came out at 1.57.

With AQLQALRQKEVDFCISLLPERFME [R19P], the protein stability index came to 2.21.

Consider AQLQALRQKEVDFCISLLMERFME [R19M], for which the protein stability index was determined as 2.43.

In the case of AQLQALRQKEVDFCISLLNERFME [R19N], the protein stability index worked out at 3.64.

With AQLQALRQKEVDFCISLLLERFME [R19L], the protein stability index came to 2.02.

As to AQLQALRQKEVDFCISLLKERFME [R19K], the protein stability index amounted to 1.2.

AQLQALRQKEVDFCISLLQERFME [R19Q]: the protein stability index worked out at 2.74.

Consider AQLQALRQKEVDFCISLLGERFME [R19G], for which the protein stability index amounted to 1.37.

As for AQLQALRQKEVDFCISLLFERFME [R19F], the protein stability index turned out to be 1.87.

As for AQLQALRQKEVDFCISLLSERFME [R19S], the protein stability index was found to be 3.43.

Turning to AQLQALRQKEVDFCISLLYERFME [R19Y], the protein stability index was 2.94.
